One assay concerns the target His6-TIP47(152-434) (UniProt O60664). Nature of the assay: pull-down.
Assay [1] addresses NH2-terminal His6-tagged p40 (UniProt Q7Z6M1). Nature of the assay: pull-down.
Sequence of UniProt Q7Z6M1 (Q7Z6M1 whole entry): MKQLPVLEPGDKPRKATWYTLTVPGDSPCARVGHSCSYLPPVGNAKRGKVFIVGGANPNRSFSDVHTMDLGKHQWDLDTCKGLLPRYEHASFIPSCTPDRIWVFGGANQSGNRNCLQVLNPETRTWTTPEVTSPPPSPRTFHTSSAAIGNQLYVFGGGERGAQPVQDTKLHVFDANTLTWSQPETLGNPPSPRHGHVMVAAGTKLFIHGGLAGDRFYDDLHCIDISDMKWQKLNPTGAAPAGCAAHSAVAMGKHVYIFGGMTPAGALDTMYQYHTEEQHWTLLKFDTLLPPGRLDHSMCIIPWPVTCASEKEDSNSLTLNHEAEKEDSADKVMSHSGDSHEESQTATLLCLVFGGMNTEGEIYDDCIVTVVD

Sequence of UniProt O60664 (O60664 152-434): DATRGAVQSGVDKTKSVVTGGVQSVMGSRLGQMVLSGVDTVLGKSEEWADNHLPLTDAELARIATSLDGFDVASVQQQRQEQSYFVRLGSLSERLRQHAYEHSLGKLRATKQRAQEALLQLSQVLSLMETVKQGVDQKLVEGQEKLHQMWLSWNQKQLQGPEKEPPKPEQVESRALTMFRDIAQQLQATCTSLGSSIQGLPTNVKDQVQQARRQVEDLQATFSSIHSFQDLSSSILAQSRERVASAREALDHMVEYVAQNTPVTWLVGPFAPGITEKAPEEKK

“Rab9-CLLL, untagged (from UniProt P24408 1-201) (natural protein)”: the pmol Rab9 bound (taken as 100% binding) was 1.5 pmol in the assay with His6-TIP47(152-434) and 3.9 pmol in assay [1].
